Data published in patent US12559559B2, “Targeting Galectin-9 as a therapeutic strategy for T-cell exhaustion in T-cell acute lymphoblastic leukemia” (DANA-FARBER CANCER INSTITUTE, INC., priority 2019, dated 2026).

Molecular target: T1, Galectin-9 (LGALS9) (Homo sapiens, UniProt O00182)
T1 construct: cultured from normal donors with and without T-ALL supernatant (containing LGALS9) for three days; endogenous in cells; host or cells: DND-41 T-ALL cell line (culture supernatant)
Assay: T-cell exhaustion functional assay / HAVCR2-LGALS9 pathway blocking in activated CD8+ T-cells (qRT-PCR)
Type: cell-based
Settings: recombinant Galectin-9 2.5 μg/mL added to the culture, 72 hours
Experimental: HAVCR2 mRNA expression in activated CD8+ T-cells cultured with T-ALL supernatant (from DND-41 cells; orange) or control media (blue), in the presence/absence of anti-human Galectin-9 (10 μg/mL) or recombinant Galectin-9 (2.5 μg/mL). n.s. P>0.05, **P≤0.01 and ***P≤0.001, based on 3 technical replicates, using two-sided t-test.
T-cells were isolated using Easy Sep Human T-cell Enrichment kit (StemCell Technologies), activated and expanded with Dynabeads Human T-activator CD3/CD28 (ThermoFisher Scientific) in X-VIVO 15 (Lonza) with 5% of human AB serum, and 50 U/mL IL-2 (Miltenyi Biotech). For T-cell exhaustion functional assays, activated CD8′ T-cells were cultured in X-VIVO 15 media or in supernatant media of DND-41 cell line, with 50 U/mL IL-2. For HAVCR2-LSGAL9 pathway blocking experiments, activated CD8^+ T-cells were cultured in X-VIVO 15 media or in supernatant media of DND-41 T-ALL supplemented with anti-human Galectin-9 10 μg/mL (Thermo Fisher Scientific) or recombinant Galectin-9 2.5 μg/mL (R&D systems) for 72 hours.
RNA was isolated using RNeasy Mini Kit (Qiagen), followed by reverse transcription with SuperScript III Reverse Transcriptase (ThermoFisher Scientific). Gene expression was quantified by quantitative real-time PCR using Power SYBR Green PCR Master Mix (Applied Biosystems, Vial instrument). […]

T1 sequence (O00182 whole entry): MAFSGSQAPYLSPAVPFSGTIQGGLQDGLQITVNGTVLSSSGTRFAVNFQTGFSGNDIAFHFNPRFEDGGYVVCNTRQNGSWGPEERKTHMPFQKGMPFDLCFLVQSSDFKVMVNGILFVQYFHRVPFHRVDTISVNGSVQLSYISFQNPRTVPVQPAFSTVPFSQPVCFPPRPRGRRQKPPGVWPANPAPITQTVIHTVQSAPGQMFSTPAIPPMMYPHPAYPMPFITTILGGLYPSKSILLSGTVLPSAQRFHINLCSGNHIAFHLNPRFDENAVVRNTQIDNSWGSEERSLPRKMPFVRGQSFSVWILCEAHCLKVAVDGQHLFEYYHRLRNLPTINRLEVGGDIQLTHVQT

B1: recombinant soluble LGALS9: recombinant Galectin-9 (R&D systems), used at 2.5 μg/mL (protein)
chain: MAFSGSQAPYLSPAVPFSGTIQGGLQDGLQITVNGTVLSSSGTRFAVNFQTGFSGNDIAFHFNPRFEDGGYVVCNTRQNGSWGPEERKTHMPFQKGMPFDLCFLVQSSDFKVMVNGILFVQYFHRVPFHRVDTISVNGSVQLSYISFQNPRTVPVQPAFSTVPFSQPVCFPPRPRGRRQKTQTVIHTVQSAPGQMFSTPAIPPMMYPHPAYPMPFITTILGGLYPSKSILLSGTVLPSAQRFHINLCSGNHIAFHLNPRFDENAVVRNTQIDNSWGSEERSLPRKMPFVRGQSFSVWILCEAHCLKVAVDGQHLFEYYHRLRNLPTINRLEVGGDIQLTHVQT
Exhaustion marker expression in activated CD8+ T-cells: upregulation of exhaustion markers
